Laboratory results as given in publication PMC4325984 (The Biochemical journal, 2015).

Target: rabbit muscle ADP-G-actin (rabbit, UniProt P68135 1-377)
Assay: ITC

Binder | Kd [nM] | dH [kcal/mol] | stoichiometry N
UNC-60A (natural protein) MSSGVMVDPDVQTSFQKLSEGRKEYRYIIFKIDENKVIVEAAVTQDQLGITGDDYDDSSKAAFDKFVEDVKSRTDNLTDCRYAVFDFKFTCSRVGAGTSKMDKIIFLQICPDGASIKKKMVYASSAAAIKTSLGTGKILQFQVSDESEMSHKELLNKLGEKYGDH | 32.2 | -2.31 ± 0.0711 | 1
UNC-60B (natural protein) MASGVKVDPSCKNAYDLLHNKHQHSYIIFKIDKNDTAIVVEKVGEKNAPYAEFVEEMKKLVEDGKECRYAAVDVEVTVQRQGAEGTSTLNKVIFVQYCPDNAPVRRRMLYASSVRALKASLGLESLFQVQASEMSDLDEKSVKSDLMSNQRI | 8.62 | -6.72 ± 0.117 | 
